The source of these data is publication PMC3936710.

“And” between values parts separate entries of the source, which are not always exact repeats. Equal entries are not always repeated.

Data set [1] addresses T1, TRF2ΔB (UniProt Q15554).
T1 sequence: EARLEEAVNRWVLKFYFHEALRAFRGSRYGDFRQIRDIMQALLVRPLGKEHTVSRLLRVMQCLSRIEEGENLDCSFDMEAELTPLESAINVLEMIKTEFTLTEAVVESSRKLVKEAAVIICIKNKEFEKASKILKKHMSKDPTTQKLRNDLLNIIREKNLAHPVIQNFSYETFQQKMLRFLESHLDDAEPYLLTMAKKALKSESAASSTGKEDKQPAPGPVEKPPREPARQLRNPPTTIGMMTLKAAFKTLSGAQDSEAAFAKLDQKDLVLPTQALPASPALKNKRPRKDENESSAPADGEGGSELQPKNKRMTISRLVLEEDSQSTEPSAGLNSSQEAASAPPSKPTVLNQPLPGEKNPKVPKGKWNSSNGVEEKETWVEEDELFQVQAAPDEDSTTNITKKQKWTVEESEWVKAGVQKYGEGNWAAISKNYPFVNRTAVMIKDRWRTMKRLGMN
Nature of the data set: AFM. As to conditions: linear T270; Tightrope assays at 75-225 mM ionic strength (buffer, pH and temperature not in the material); AFM samples diluted 10-fold in 25 mM NaOAc, 25 mM HEPES-KOH pH 7.

Data set [2] addresses T2, TRF1 (UniProt P54274).
T2 sequence: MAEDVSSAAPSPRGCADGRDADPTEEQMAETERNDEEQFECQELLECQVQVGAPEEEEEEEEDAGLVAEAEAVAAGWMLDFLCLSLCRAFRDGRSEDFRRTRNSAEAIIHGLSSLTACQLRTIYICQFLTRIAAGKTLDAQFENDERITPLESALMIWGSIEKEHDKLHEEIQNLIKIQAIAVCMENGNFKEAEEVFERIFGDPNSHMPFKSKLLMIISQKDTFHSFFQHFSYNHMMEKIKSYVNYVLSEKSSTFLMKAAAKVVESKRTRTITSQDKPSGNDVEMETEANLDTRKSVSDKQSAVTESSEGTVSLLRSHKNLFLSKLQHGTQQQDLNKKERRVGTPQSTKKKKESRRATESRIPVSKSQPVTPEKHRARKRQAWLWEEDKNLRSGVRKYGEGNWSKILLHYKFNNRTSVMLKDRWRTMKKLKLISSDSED
In words: single-molecule DNA tightrope. To be noted: Tightrope assays at 75-225 mM ionic strength (buffer, pH and temperature not in the material); AFM samples diluted 10-fold in 25 mM NaOAc, 25 mM HEPES-KOH pH 7.

Data set [3] concerns the target T3, TRF2 (UniProt Q15554).
T3 sequence: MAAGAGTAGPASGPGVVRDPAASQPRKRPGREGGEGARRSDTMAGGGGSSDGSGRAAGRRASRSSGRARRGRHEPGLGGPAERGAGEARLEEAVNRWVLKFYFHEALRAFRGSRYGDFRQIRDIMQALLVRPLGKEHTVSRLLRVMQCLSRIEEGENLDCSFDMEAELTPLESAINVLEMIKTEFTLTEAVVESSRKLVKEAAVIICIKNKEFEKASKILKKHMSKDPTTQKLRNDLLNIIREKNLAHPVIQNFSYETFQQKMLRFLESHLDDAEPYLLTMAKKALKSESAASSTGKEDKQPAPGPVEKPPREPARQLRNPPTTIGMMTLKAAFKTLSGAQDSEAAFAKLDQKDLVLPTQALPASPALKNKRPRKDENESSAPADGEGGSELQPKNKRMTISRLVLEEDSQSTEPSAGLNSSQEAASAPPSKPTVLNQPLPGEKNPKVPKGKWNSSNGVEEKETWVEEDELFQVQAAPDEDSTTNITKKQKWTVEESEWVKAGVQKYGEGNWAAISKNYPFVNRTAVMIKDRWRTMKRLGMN
Nature of the data set: single-molecule DNA tightrope. As to conditions: Tightrope assays at 75-225 mM ionic strength (buffer, pH and temperature not in the material); AFM samples diluted 10-fold in 25 mM NaOAc, 25 mM HEPES-KOH pH 7.

Data set [4] deals with T1, TRF2ΔB. Nature of the data set: single-molecule DNA tightrope. As to conditions: 125 mM ionic strength; Tightrope assays at 75-225 mM ionic strength (buffer, pH and temperature not in the material); AFM samples diluted 10-fold in 25 mM NaOAc, 25 mM HEPES-KOH pH 7.
For data set [5], the system named is TRF1 Myb domain. In words: cited. To be noted: Tightrope assays at 75-225 mM ionic strength (buffer, pH and temperature not in the material); AFM samples diluted 10-fold in 25 mM NaOAc, 25 mM HEPES-KOH pH 7.; cited from earlier work.
The subject of data set [6] is TRF2 Myb domain. In words: cited. To be noted: Tightrope assays at 75-225 mM ionic strength (buffer, pH and temperature not in the material); AFM samples diluted 10-fold in 25 mM NaOAc, 25 mM HEPES-KOH pH 7.; cited from earlier work.

With T270 telomeric region (TTAGGG)270, the binding signal (% of DNA-bound QDs at telomeric region) in data set [1] turned out to be 66. Also, the binding signal (s (attached lifetime)) is 17.3 and 9.2 in data set [2]; 14.8 and 10.3 in data set [3].

In the case of “TTAGGGTTAGGGTTAGGGTTAGGGTTAGGGTTAGGGTTAGGGTTAGGGTTAGGGTTAGGG (double strand) [Tel10 telomeric region (TTAGGG)10]”, the binding signal (s (attached lifetime)) in data set [3] worked out at 6.7.

In data set [4], lambda DNA yielded a binding signal (QDs per field of view (TRF2 13.3)) of 1.4.

On to telomeric DNA of cited Myb domain study, for which the Kd in data set [5] is 200 nM; in data set [6], 750 nM.

Usually Kd stands for the concentration at which binding is half-saturated.
